# Measurements taken from paper PMC9035508.
# Key:
# Experiment in all cases: ELISA; FXIII proteins or collagen type III coated on wells at 10 µg/mL (overnight, 4°C), blocked with 0.5% BSA; GPVI-Fc2 added at varied concentrations; bound GPVI detected by 1G5/IRDye 800CW anti-mouse antibody; KD from binding curves (Figure 1B)
# [1] = biological target: FXIII A-subunit (activated) (rh-FXIIIAa), thrombin-activated form of rh-FXIIIA2 (human) (UniProt P00488)
# [2] = biological target: Plasma FXIII (FXIIIA2B2), tetrameric, not activated (human) (UniProt P00488)
# [3] = biological target: FXIII A-subunit (rh-FXIIIA2), recombinant, not fully activated form (human) (UniProt P00488)
# collagen type III = collagen type III (UniProt P02461)
# Chain of UniProt P02461 (P02461 24-1221): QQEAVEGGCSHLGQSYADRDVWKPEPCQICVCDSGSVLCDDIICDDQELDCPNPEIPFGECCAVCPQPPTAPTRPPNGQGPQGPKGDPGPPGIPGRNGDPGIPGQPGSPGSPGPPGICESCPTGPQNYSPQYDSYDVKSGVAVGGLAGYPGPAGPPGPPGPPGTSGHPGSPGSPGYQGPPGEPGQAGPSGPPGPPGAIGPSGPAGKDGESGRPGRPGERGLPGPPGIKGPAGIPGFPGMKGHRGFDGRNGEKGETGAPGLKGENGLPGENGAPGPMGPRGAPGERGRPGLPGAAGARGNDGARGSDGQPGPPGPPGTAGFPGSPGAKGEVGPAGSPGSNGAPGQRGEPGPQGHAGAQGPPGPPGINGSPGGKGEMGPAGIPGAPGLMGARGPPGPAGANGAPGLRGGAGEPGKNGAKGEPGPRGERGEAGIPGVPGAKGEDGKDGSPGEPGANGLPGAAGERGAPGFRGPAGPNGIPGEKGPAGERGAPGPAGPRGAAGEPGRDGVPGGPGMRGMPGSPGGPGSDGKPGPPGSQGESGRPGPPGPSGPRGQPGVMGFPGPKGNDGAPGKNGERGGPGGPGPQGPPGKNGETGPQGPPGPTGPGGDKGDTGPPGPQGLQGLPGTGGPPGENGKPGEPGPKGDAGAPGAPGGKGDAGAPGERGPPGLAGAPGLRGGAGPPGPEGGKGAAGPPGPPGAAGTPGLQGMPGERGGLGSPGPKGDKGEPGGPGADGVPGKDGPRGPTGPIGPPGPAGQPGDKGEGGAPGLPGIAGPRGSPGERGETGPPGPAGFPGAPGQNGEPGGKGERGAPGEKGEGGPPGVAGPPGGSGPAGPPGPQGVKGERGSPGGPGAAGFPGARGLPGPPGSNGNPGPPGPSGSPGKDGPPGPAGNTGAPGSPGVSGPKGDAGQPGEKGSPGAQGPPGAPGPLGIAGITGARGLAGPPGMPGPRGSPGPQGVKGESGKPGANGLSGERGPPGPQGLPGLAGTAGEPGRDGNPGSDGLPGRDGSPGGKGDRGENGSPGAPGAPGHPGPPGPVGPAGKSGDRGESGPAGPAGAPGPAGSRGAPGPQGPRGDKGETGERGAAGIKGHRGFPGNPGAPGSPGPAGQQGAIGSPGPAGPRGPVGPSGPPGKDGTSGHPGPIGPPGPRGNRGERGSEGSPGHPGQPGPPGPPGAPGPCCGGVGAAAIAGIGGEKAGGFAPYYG
substance,measurement,setting,value
"GPVI-Fc2 (recombinant human GPVI extracellular domain, dimer) (from UniProt Q9HCN6 21-267) (Fc fusion)",Kd,[1],0.14 µM
same,Kd,[2],0.216 µM
same,Kd,[3],0.366 µM
same,Kd,collagen type III,0.183 µM
